According to article PMC6254012, “AP2/ERF Family Transcription Factors ORA59 and RAP2.3 Interact in the Nucleus and Function Together in Ethylene Responses” (Frontiers in Plant Science, 2018):

Biological target: T1, His-tagged RAP2.3 (RAP2.3-His) (Arabidopsis thaliana, UniProt P42736 1-248)
T1 construct: RAP2.3 (related to AP2.3), Arabidopsis thaliana; not shown: His, C-terminal, kept
Test: pull-down; GST or ORA59-GST (10 μg) on glutathione sepharose 4B beads, RAP2.3-His (10 μg) added for 2 h at 4°C; 25 mM Tris-HCl pH 8.0, 100 mM NaCl, 1% Triton X-100, 1 mM DTT; immunoblot with anti-GST and anti-His
Conditions: both partners purified

T1 sequence (P42736 whole entry): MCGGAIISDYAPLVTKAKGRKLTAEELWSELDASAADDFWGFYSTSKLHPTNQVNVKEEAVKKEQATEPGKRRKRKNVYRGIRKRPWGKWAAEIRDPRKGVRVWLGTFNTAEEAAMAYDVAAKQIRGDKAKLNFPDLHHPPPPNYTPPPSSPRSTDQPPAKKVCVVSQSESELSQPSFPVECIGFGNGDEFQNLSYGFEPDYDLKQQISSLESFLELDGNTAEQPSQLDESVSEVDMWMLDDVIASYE

binding result: binds
B1: C-terminal GST-tagged ORA59 (ORA59-GST) (natural protein)
chain: not shown
notes: ORA59 (octadecanoid-responsive arabidopsis 59), Arabidopsis thaliana; not shown: GST, C-terminal, kept
